Experimental data taken from US20240254182A1 (PROVINCIAL HEALTH SERVICES AUTHORITY, published 2024).

B8: design 134 G-CSFR(Ig-CRH)E, tag cleaved (receptor)
chain: SMGCGHISVSAPIVHLGDPITASCIIKQNCSHLDPEPQILWELGAELQPGGRQQRLSDGTQESIITLPHLNHTQAFLSCSLNWGNSLQILDQVELRAGYPPAIPHNLSCLMNLTTSSLICQWEPGPETHLPTSFTLKSFKSEGNCQTQGDSILDCVPKDGQSHCSIPDKHLLLYQNMGIWVQAENALGTSMSPQLCLDPMDVVKLEPPMLRTMDPSPEAAPPQAGCLQLSWEPWQPGLHINQKCELRHKPQRGEASWALVGPLPLEALQYELCGLLPATAYTLQIRCIRWPLPGHWSDWSPSLELRTTE
notes: also called design 137 G-CSFR(Ig-CRH)E

Experiments:
[1] = molecular target: T1, WT G-CSFR(Ig-CRH), purified, tag cleaved (human, UniProt Q99062 26-331); assay: SPR, WT G-CSFR(Ig-CRH) amine-coupled, G-CSFE injected, single-cycle kinetics
T1 construct: also called G-CSFRWT; wild type G-CSFR(Ig-CRH)
T1 chain: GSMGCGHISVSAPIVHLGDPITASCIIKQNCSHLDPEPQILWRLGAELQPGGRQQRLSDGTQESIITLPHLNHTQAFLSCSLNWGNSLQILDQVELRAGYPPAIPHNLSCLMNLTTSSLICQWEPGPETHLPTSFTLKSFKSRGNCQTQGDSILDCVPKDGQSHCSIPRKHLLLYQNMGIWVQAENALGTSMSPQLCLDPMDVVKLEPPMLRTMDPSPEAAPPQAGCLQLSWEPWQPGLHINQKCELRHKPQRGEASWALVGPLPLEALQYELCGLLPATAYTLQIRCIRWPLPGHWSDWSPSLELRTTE
Method: (§1) The SPR binding assays were carried out on a Biacore T200 instrument (GE Healthcare, Mississauga, ON, Canada) with PBS-T (PBS+0.05% (v/v) Tween 20) running buffer at a temperature of 25° C. CM5 Series S sensor chip, Biacore amine coupling kit (NHS, EDC and 1 M ethanolamine), and 10 mM sodium acetate buffers were all purchased from GE Healthcare. PBS running buffer with 0.05% Tween20 (PBS-T) was purchased from Teknova Inc. (Hollister, CA). Designs were assessed in three different immobilization orientations.
To assess binding affinity of G-CSFE to G-CSFRWT, recombinant G-CSFRWT purified as described in Example 5 was captured as described above in this Example. Using single-cycle kinetics, six concentrations of a two-fold dilution series of each G-CSFE mutant starting at […] with a blank buffer control were sequentially injected as described above. The same sample titration was also performed on a reference cell with no variants captured. The G-CSFRWT surface was regenerated as described above.

[2] = molecular target: T2, WT G-CSF, purified from insect cells, tag cleaved (human, UniProt P09919 31-206); assay: SPR, single-cycle kinetics
T2 construct: protein of the SPR; also called G-CSFWT; wild type G-CSF
T2 sequence: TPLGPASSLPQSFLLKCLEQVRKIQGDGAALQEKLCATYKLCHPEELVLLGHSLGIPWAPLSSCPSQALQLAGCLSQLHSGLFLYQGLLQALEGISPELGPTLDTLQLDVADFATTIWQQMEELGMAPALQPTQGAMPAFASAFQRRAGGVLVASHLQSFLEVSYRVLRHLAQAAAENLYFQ

[3] = molecular target: T2, WT G-CSF, purified from insect cells, …; assay: SPR (Biacore T200), single-cycle kinetics
[4] = molecular target: B8; assay: SPR, G-CSFRE amine-coupled, G-CSFE injected, single-cycle kinetics
Method: as §1
To determine binding affinity of G-CSFE to G-CSFRE the G-CSFRE mutant was captured by standard amine coupling as described by the manufacturer (GE LifeSciences). Briefly, immediately after EDC/NHS activation, a 5 μg/mL solution of G-CSFRE in 10 mM NaOAc, pH 5.0, was injected at a flow rate of 5 μL/min until a receptor density of ˜700-900 RU was reached. The remaining active groups were quenched by a 420 s injection of 1 M ethanolamine hydrochloride-NaOH pH 8.5 at 10 μL/min. Using single-cycle kinetics, six concentrations of a two-fold dilution series of the corresponding G-CSFE mutant starting at 200 nM with a blank buffer control were sequentially injected at 25 μL/min for 300 s with a 1800 s dissociation phase, resulting in a set of sensorgrams with a buffer blank reference. The same sample titration was also performed on a reference cell with no variants captured. The chip was regenerated to prepare for the next injection cycle by one pulse of 10 mM glycine/HCl, pH 2.0, for 30 s at 30 μL/min.
Double-referenced sensorgrams from duplicate or triplicate repeat injections were analyzed using Biacore™ T200 Evaluation Software v3.0 and fit to the 1:1 Langmuir binding model.

B1: design 9 G-CSFE, tag cleaved (ligand)
chain: TPLGPASSLPQSFLLKCLEQVRKIQGDGAALQEKLCATYKLCHPEELVLLGHSLGIPWAPLSSCPSQALQLAGCLSQLHSGLFLYQGLLQALEGISPELGPTLRTLQKDVARFATTIWRQMKELGMAPALQPTQGAMPAFASAFQRRAGGVLVASHLQSFLEVSYRVLRHLAQAAAENLYFQ
notes: also called design 9 G-CSFE mutant
For B1, the “KD fold change (against WT:WT)” value [1] was 79 fold.

B2: design 130 G-CSFR(Ig-CRH)E, tag cleaved (receptor)
chain: SMGCGHISVSAPIVHLGDPITASCIIKQNCSHLDPEPQILWELGAELQPGGRQQRLSDGTQESIITLPHLNHTQAFLSCSLNWGNSLQILDQVELRAGYPPAIPHNLSCLMNLTTSSLICQWEPGPETHLPTSFTLKSFKSRGNCQTQGDSILDCVPKDGQSHCSIPDKHLLLYQNMGIWVQAENALGTSMSPQLCLDPMDVVKLEPPMLRTMDPSPEAAPPQAGCLQLSWEPWQPGLHINQKCELRHKPQRGEASWALVGPLPLEALQYELCGLLPATAYTLQIRCIRWPLPGHWSDWSPSLELRTTE
notes: also called 130 ECD (Ig-CRH)
B2: no binding [2].

B3: design 303 G-CSFR(Ig-CRH)E, tag cleaved (receptor)
chain: SMGCGHISVSAPIVHLGDPITASCIIKQNCSHLDPEPQILWRLGAELQPGGRQQRLSDGTQESIITLPHLNHTQAFLSCSLNWGNSLQILDQVKLRAGYPPAIPHNLSCLMNLTTSSLICQWEPGPETHLPTSFTLKSFKSRGNCQTQGDSILDCVPKDGQSHCSIPDKHLLLYQNMGIWVQAENALGTSMSPQLCLDPMDVVKLEPPMLRTMDPSPEAAPPQAGCLQLSWEPWQPGLHINQKCELRHKPQRGEASWALVGPLPLEALQYELCGLLPATAYTLQIRCIRWPLPGHWSDWSPSLELRTTE
B3: no binding [3].

B4: design 117 G-CSFE, tag cleaved (ligand)
chain: TPLGPASSLPQSFLLKCLEQVRKIQGDGAALQEKLCATYKLCHPERLVLLGHSLGIPWAPLSSCPSQALQLAGCLSQLHSGLFLYQGLLQALEGISPELGPTLDTLQLDVADFATTIWQQMRRLGMAPALQPTQGAMPAFASAFQRRAGGVLVASHLQSFLEVSYRVLRHLAQAAAENLYFQ
notes: also called design 117 G-CSFE mutant
With B4 the “KD fold change (against WT:WT)” value [1] was 3.4 fold.

B5: design 304 G-CSFR(Ig-CRH)E, tag cleaved (receptor)
chain: SMGCGHISVSAPIVHLGDPITASCIIKQNCSHLDPEPQILWELGAELQPGGRQQRLSDGTQESIITLPHLNHTQAFLSCSLNWGNSLQILDQVKLRAGYPPAIPHNLSCLMNLTTSSLICQWEPGPETHLPTSFTLKSFKSRGNCQTQGDSILDCVPKDGQSHCSIPDKHLLLYQNMGIWVQAENALGTSMSPQLCLDPMDVVKLEPPMLRTMDPSPEAAPPQAGCLQLSWEPWQPGLHINQKCELRHKPQRGEASWALVGPLPLEALQYELCGLLPATAYTLQIRCIRWPLPGHWSDWSPSLELRTTE
B5: no binding [3].

B6: design 401 G-CSFR(Ig-CRH)E, tag cleaved (receptor)
chain: SMGCGHISVSAPIVHLGDPITASCIIKQNCSHLDPEPQILWELGAELQPGGRQQRLSDGTQESIITLPHLNHTQAFLSCSLNWGNSLQILDQVELRAGYPPAIPHNLSCLMNLTTSSLICQWEPGPETHLPTSFTLKSFKSRGNCQTQGDSILDCVPKDGQSHCSIPDKHLLLYQNMGIWVQAENALGTSMSPQLCLDPMDVVKLEPPMLRTMDPSPEAAPPQAGCLQLSWEPWQPGLHINQKCELRHKPQRGEASWALVGPLPLEALQYELCGLLPATAYTLQIRCIDWPLPGHWSDWSPSLELRTTE
B6: no binding [2].

B7: design 300 G-CSFR(Ig-CRH)E, tag cleaved (receptor)
chain: SMGCGHISVSAPIVHLGDPITASCIIKQNCSHLDPEPQILWRLGAELQPGGRQQRLSDGTQESIITLPHLNHTQAKLSCSLNWGNSLQILDKVELRAGYPPAIPHNLSCLMNLTTSSLICQWEPGPETHLPTSFTLKSFKSRGNCQTQGDSILDCVPKDGQSHCSIPDKHLLLYQNMGIWVQAENALGTSMSPQLCLDPMDVVKLEPPMLRTMDPSPEAAPPQAGCLQLSWEPWQPGLHINQKCELRHKPQRGEASWALVGPLPLEALQYELCGLLPATAYTLQIRCIRWPLPGHWSDWSPSLELRTTE
B7: no binding [3].

B8: no binding [3].

B9: design 307 G-CSFR(Ig-CRH)E, tag cleaved (receptor)
chain: SMGCGHISVSAPIVHLGDPITASCIIKQNCSHLDPEPQILWELGAELQPGGRQQRLSDGTQESIITLPHLNHTQAFLSCSLNWGNSLQILDQVELRAGYPPAIPHNLSCLMNLTTSSLICQWEPGPETHLPTSFTLKSFKSRGNCQTQGDSILDCVPKDGQSHCSIPRKHLLLYQNMGIWVQAENALGTSMSPQLCLKPMKVVKLEPPMLRTMDPSPEAAPPQAGCLQLSWEPWQPGLHINQKCELRHKPQRGEASWALVGPLPLEALQYELCGLLPATAYTLQIRCIEWPLPGHWSDWSPSLELRTTE
B9: no binding [3].

B10: design 402 G-CSFR(Ig-CRH)E, tag cleaved (receptor)
chain: SMGCGHISVSAPIVHLGDPITASCIIKQNCSHLDPEPQILWELGAELQPGGRQQRLSDGTQESIITLPHLNHTQAFLSCSLNWGNSLQILDQVELRAGYPPAIPHNLSCLMNLTTSSLICQWEPGPETHLPTSFTLKSFKSRGNCQTQGDSILDCVPKDGQSHCSIPEKHLLLYENMGIWVQAENALGTSMSPQLCLDPMDVVKLEPPMLRTMDPSPEAAPPQAGCLQLSWEPWQPGLHINQKCELRHKPQRGEASWALVGPLPLEALQYELCGLLPATAYTLQIRCIEWPLPGHWSDWSPSLELRTTE
B10: no binding [2].

B11: design 134 G-CSFE, tag cleaved (ligand)
chain: TPLGPASSLPQSFLLKCLEQVRKIQGDGAALQEKLCATYKLCHPERLVLLGHSLGIPWAPLSSCPSQALQLAGCLSQLHSGLFLYQGLLQALEGISPELGPTLDTLQKDVARFATTIWQQMRRLGMAPALQPTQGAMPAFASAFQRRAGGVLVASHLQSFLEVSYRVLRHLAQAAAENLYFQ
B11 was tested, and the “KD fold change (against WT:WT)” value [4] was 1 fold and the “KD fold change (against WT:WT)” value [1] was 465 fold.
